Data on 1 molecule can be found in article PMC9201380 (2022).

In this experiment the target is SARS-CoV-2 S receptor-binding domain (residues 330-531), Avi-tagged and biotinylated (SARS-CoV-2, UniProt P0DTC2 330-531). The experiment is described as follows: BLI.

B1: DL28 (monovalent nanobody) (VHH)
VHH: QVQLQESGGGLVQAGGSLRLSCAASGSDFSSSTMGWYRQAPGKQREFVAISSEGSTSYAGSVKGRFTISRDNAKNTVYLQMNSLEPEDTAVYYCNVVDRWYDYWGQGTQVTVSA
B1 registered an off-rate constant (koff) of 0.000743 s⁻¹.
